Assay results from patent US20230279131A1.
Like-named read-outs stand apart in the source and are kept apart here. Blank lines part the entries; values can stand above or below the substance they belong to.

Experiments:
[1] = biological target: T1, mouse IL-2Rγ expressed on cells (MC/9) (mouse) (UniProt P34902); assay: flow cytometry on MC/9 cells (endogenous mouse IL-2Rg), isotype control 10 ug/ml
T1 sequence (looked up): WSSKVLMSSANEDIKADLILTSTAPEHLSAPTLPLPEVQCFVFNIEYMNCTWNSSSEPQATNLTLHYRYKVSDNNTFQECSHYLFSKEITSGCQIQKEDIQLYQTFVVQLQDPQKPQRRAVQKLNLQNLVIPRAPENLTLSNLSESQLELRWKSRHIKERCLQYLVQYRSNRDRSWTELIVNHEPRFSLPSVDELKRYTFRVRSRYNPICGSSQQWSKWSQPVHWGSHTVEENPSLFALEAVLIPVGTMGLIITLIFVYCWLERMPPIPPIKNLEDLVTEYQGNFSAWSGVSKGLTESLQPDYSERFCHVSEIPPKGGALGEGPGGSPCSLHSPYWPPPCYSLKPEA

[2] = biological target: T2, human IL-2Rγ expressed on cells (NK-92, Jurkat) (human) (UniProt P31785); assay: flow cytometry on NK-92 cells (endogenous human IL-2Rg), isotype control 10 ug/ml
T2 sequence (looked up): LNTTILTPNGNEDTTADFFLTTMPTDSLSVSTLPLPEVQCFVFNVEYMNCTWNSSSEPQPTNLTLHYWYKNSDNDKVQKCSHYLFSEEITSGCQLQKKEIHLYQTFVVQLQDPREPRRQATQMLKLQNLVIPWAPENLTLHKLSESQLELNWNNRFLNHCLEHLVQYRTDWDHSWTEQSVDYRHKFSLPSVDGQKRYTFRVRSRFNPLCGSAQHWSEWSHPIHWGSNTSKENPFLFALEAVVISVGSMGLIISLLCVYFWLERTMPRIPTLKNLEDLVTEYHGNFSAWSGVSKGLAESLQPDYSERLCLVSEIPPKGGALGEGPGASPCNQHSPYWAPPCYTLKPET

[3] = biological target: human IL-2Rγ expressed on cells (human) (UniProt P31785); assay: flow cytometry, isotype control at 10 µg/ml; low end of the range (Jurkat by Table 9-1)
[4] = biological target: T2, human IL-2Rγ expressed on cells (NK-92, Jurkat) (human); assay: flow cytometry on Jurkat cells (endogenous human IL-2Rg), isotype control 10 ug/ml
[5] = biological target: human IL-2Rγ expressed on cells (human) (UniProt P31785); assay: flow cytometry, isotype control at 10 µg/ml; high end of the range (NK-92 by Table 9-1)
[6] = biological target: human IL-2Rγ expressed on cells (human) (UniProt P31785); assay: flow cytometry on NK-92 cells, isotype control at 10 µg/ml; the end of the range that Table 9-2 ties to NK-92
[7] = biological target: T2, human IL-2Rγ expressed on cells (NK-92, Jurkat) (human); assay: flow cytometry on NK-92 cells (endogenous human IL-2Rg), isotype control 10 ug/ml; remark: listed apart in the source
[8] = biological target: T2, human IL-2Rγ expressed on cells (NK-92, Jurkat) (human); assay: flow cytometry on Jurkat cells (endogenous human IL-2Rg), secondary antibody alone
[9] = biological target: T2, human IL-2Rγ expressed on cells (NK-92, Jurkat) (human); assay: flow cytometry on NK-92 cells (endogenous human IL-2Rg), secondary antibody alone
[10] = biological target: T1, mouse IL-2Rγ expressed on cells (MC/9) (mouse); assay: flow cytometry on MC/9 cells (endogenous mouse IL-2Rg), secondary antibody alone
[11] = biological target: T3, human IL2Rγ expressed on cells (human) (UniProt P31785); assay: cell-based or functional assay
T3 sequence (looked up): T2 sequence (looked up)

[12] = biological target: T3, human IL2Rγ expressed on cells (human); assay: cell-based or functional assay; remark: listed apart in the source

Substance: human IL-2 (from UniProt P60568 21-153) (ligand)
EC50 [M] of ligand; NK92/hIL7R/STAT3-luc [11]: 3.3e-11 M | EC50 [M] of ligand; NK92/hIL7R/STAT3-luc [12]: 4.5e-11 M

Substance: human IL-9 (from UniProt P15248 19-144) (ligand)
EC50 [M] of ligand; NK92/hIL7R/STAT3-luc [11]: 2e-11 M | EC50 [M] of ligand; NK92/hIL7R/STAT3-luc [12]: 3.3e-11 M

Substance: human IL-21 (from UniProt Q9HBE4 30-162) (ligand)
EC50 [M] of ligand; NK92/hIL7R/STAT3-luc [11]: 3.1e-12 M | EC50 [M] of ligand; NK92/hIL7R/STAT3-luc [12]: 6e-12 M

The remaining lines, values ahead:

Binding Ratio (Sample over unstained MFIs) [1]: 1 | Binding Ratio (Sample over unstained MFIs) [2]: 13 | binding ratio (sample MFI over unstained MFI) [3]: 1 | Binding Ratio (Sample over unstained MFIs) [4]: 1 | binding ratio (sample MFI over unstained MFI) [5]: 13 | binding ratio (sample MFI over unstained MFI) [6]: 1 | Binding Ratio (Sample over unstained MFIs) [7]: 1
Substance: REGN1945 (antibody)

Binding Ratio (Sample over unstained MFIs) [8]: 1 | Binding Ratio (Sample over unstained MFIs) [9]: 1 | Binding Ratio (Sample over unstained MFIs) [10]: 1
Substance: anti-human antibody conjugated to allophycocyanin (APC) (Jackson ImmunoResearch, #109-136-170)

EC50 [M] of ligand; NK92/hIL7R/STAT3-luc [11]: 1.5e-10 M | EC50 [M] of ligand; NK92/hIL7R/STAT3-luc [12]: 2.3e-10 M
Substance: human IL-15 (from UniProt P40933 49-162) (ligand)
